From article PMC2156157 (The Journal of Cell Biology, 1999)
Ends that are not written are not given here. * marks the point of attachment. Biotin = O=C1N[C@H]2[C@H](CS[C@H]2CCCCC(=O)*)N1

Molecular target: T1, GST-EBP50 (ERM-binding phosphoprotein 50 kD) (human, UniProt O14745 1-358)
T1 sequence (looked up): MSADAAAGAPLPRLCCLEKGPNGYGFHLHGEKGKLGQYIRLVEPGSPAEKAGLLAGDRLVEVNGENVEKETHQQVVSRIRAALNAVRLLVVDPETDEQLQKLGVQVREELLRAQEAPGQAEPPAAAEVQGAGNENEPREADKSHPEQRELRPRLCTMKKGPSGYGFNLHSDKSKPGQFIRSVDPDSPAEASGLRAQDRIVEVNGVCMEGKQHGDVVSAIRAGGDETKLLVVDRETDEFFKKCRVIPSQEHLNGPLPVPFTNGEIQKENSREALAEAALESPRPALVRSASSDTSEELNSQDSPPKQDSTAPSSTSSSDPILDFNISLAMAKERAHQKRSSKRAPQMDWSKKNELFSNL
Test: pull-down

Biotin-SGSGTEEEVQDTRL [CFTRwt peptide (COOH-terminal 10 amino acids of human CFTR)]
binding result: binds
